# US20240270846A1 (published 2024)
# Changes are numbered by the printed parent chain.
# B1: GPC3 ERY22-dBBDu_183/L063 (bispecific antibody, human IgG1, kappa, L234A L235A, N297A)
# heavy 1: DIVMTQSPLSLPVTPGEPASISCRSSQSLVHSNRNTYLHWYQQKPGQAPRLLIYKVSNRFSGVPDRFSGSGSGTDFTLKISRVEAEDVGVYYCSQNTHVPPTFGQGTKLEIKSSASTKGPSVFPLAPSSKSTSGGTAALGCLVKDYFPEPVTVSWNSGALTSGVHTFPAVLQSSGLYSLSSVVTVPSSSLGTQTYICNVNHKPSNTKVDKKVEPKSCDKTHTCPPCPAPEAAGGPSVFLFPPKPKDTLMISRTPEVTCVVVDVSHEDPEVKFNWYVDGVEVHNAKTKPREEQYASTYRVVSVLTVLHQDWLNGKEYKCKVSNKALPAPIEKTISKAKGQPREPQVCTLPPSRDELTKNQVSLWCLVKGFYPSDIAVEWESNGQPENNYKTTPPVLDSDGSFFLYSKLTVDKSRWQQGNVFSCSVMHEALHNHYTQKSLSLSPHHHHHHHH
# light 1: QVQLVQSGAEVKKPGASVKVSCKASGYTFTDYEMHWIRQPPGQGLEWIGAIDPKTGDTAYSQKFKGRVTLTADKSTSTAYMELSSLTSEDTAVYYCTRFYSYTYWGQGTLVTVSSASVAAPSVFIFPPSDEQLKSGTASVVCLLNNFYPREAKVQWKVDNALQSGNSQESVTEQDSKDSTYSLSSTLTLSKADYEKHKVYACEVTHQGLSSPVTKSFNRGEC
# heavy 2: QVQLVESGGGLVQPGRSLRLSCAASGFTFSNAWMHWVRQAPGKGLEWVAQIKDKGNAYAAYYAPSVKGRFTISRDDSKNSIYLQMNSLKTEDTAVYYCHYVHYASASTVLPAFGVDAWGQGTTVTVSSASTKGPSVFPLAPSSKSTSGGTAALGCLVKDYFPEPVTVSWNSGALTSGVHTFPAVLQSSGLYSLSSVVTVPSSSLGTQTYICNVNHKPSNTKVDKKVEPKSCDKTHTCPPCPAPEAAGGPSVFLFPPKPKDTLMISRTPEVTCVVVDVSHEDPEVKFNWYVDGVEVHNAKTKPREEQYASTYRVVSVLTVLHQDWLNGKEYKCKVSNKALPAPIEKTISKAKGQPREPQVYTLPPSRCELTKNQVSLSCAVKGFYPSDIAVEWESNGQPENNYKTTPPVLDSDGSFFLVSKLTVDKSRWQQGNVFSCSVMHEALHNHYTQKSLSLSPDYKDDDDK
# light 2: DIVMTQSPLSLPVTPGEPASISCRSSQELVHTNRHTYLHWYQQKPGQAPRLLIYKVSNRFPGVPDRFSGSGSGTDFTLKISRVEAEDVGVYYCAQGTQVPFTFGQGTKLEIKRTVAAPSVFIFPPSDEQLKSGTASVVCLLNNFYPREAKVQWKVDNALQSGNSQESVTEQDSKDSTYSLSSTLTLSKADYEKHKVYACEVTHQGLSSPVTKSFNRGEC
# B2: GPC3 ERY22-dBBDu_189/L116 (bispecific antibody, human IgG1, kappa, L234A L235A, N297A)
# heavy 1: B1 heavy 1
# light 1: B1 light 1
# heavy 2: B1 heavy 2 with V48I, K54R, G55S, A57Q, A60T, S105Q, T108S, V109L, A112S
# light 2: B1 light 2 with R24S, T32A, H35Q, T36I, S57A
# B3: GPC3 ERY22-dBBDu_167/L091 (bispecific antibody, human IgG1, kappa, L234A L235A, N297A)
# heavy 1: B1 heavy 1
# light 1: B1 light 1
# heavy 2: B1 heavy 2 with A57L, S107G, T108G, V109G, A112G
# light 2: B1 light 2 with R24S, S25A, Q27E, E28S, V30L, T32N, K55R, P61N, A94G
# B4: GPC3 ERY22-dBBDu_186/L096 (bispecific antibody, human IgG1, kappa, L234A L235A, N297A)
# heavy 1: B1 heavy 1
# light 1: B1 light 1
# heavy 2: B1 heavy 2 with K54R, G55S, A57Q, A60T, S105Q
# light 2: B1 light 2 with S25T, T32I, H35Y, T36I, Y37F, S57Y, P61Q, Q98S, F101Y
# B5: GPC3 ERY22-dBBDu_189/L119 (bispecific antibody, human IgG1, kappa, L234A L235A, N297A)
# heavy 1: B1 heavy 1
# light 1: B1 light 1
# heavy 2: B1 heavy 2 with V48I, K54R, G55S, A57Q, A60T, S105Q, T108S, V109L, A112S
# light 2: B1 light 2 with R24T, S25A, T32I, H35F, T36I, Y37F, P61I, T97S
# B6: GPC3 ERY22-dBBDu_186/L098 (bispecific antibody, human IgG1, kappa, L234A L235A, N297A)
# heavy 1: B1 heavy 1
# light 1: B1 light 1
# heavy 2: B1 heavy 2 with K54R, G55S, A57Q, A60T, S105Q
# light 2: B1 light 2 with R24A, S25A, Q27E, T32I, H35Y, T36I, Y37F, P61I, T97S
# B7: GPC3 ERY22-dBBDu_183/L072 (bispecific antibody, human IgG1, kappa, L234A L235A, N297A)
# heavy 1: B1 heavy 1
# light 1: B1 light 1
# heavy 2: B1 heavy 2
# light 2: B1 light 2 with R24Q, S25A, T32M, H35N, Q98S
# B8: GPC3 ERY22-dBBDu_186/L106 (bispecific antibody, human IgG1, kappa, L234A L235A, N297A)
# heavy 1: B1 heavy 1
# light 1: B1 light 1
# heavy 2: B1 heavy 2 with K54R, G55S, A57Q, A60T, S105Q
# light 2: DIVMTQSPLSLPVTPGEPASISCSTSEELLHINRFIFLHWYQQKPGQAPRLLIYKVANRFMGVPDRFSGSGSGTDFTLKISRVEAEDVGVYYCAQGSQVPFTFGQGTKLEIKRTVAAPSVFIFPPSDEQLKSGTASVVCLLNNFYPREAKVQWKVDNALQSGNSQESVTEQDSKDSTYSLSSTLTLSKADYEKHKVYACEVTHQGLSSPVTKSFNRGEC
# B9: dBBDu_186 / dBBDu_L096 (antibody, human IgG1, V domains shown)
# VH: QVQLVESGGGLVQPGRSLRLSCAASGFTFSNAWMHWVRQAPGKGLEWVAQIKDRSNQYATYYAPSVKGRFTISRDDSKNSIYLQMNSLKTEDTAVYYCHYVHYAQASTVLPAFGVDAWGQGTTVTVSS
# VL: DIVMTQSPLSLPVTPGEPASISCRTSQELVHINRYIFLHWYQQKPGQAPRLLIYKVYNRFQGVPDRFSGSGSGTDFTLKISRVEAEDVGVYYCAQGTSVPYTFGQGTKLEIK
# notes: Tested as IgG (human IgG1 constant region, kappa light chain); also called dBBDu186/L096
# B10: dBBDu_167 / dBBDu_L091 (antibody, human IgG1, V domains shown)
# VH: B9 VH with R54K, S55G, Q57L, T60A, Q105S, S107G, T108G, V109G, A112G
# VL: DIVMTQSPLSLPVTPGEPASISCSASESLLHNNRHTYLHWYQQKPGQAPRLLIYRVSNRFNGVPDRFSGSGSGTDFTLKISRVEAEDVGVYYCGQGTQVPFTFGQGTKLEIK
# notes: Tested as IgG (human IgG1 constant region, kappa light chain); also called dBBDu167/L091
# B11: dBBDu_183 / dBBDu_L063 (antibody, V domains shown)
# VH: B9 VH with R54K, S55G, Q57A, T60A, Q105S
# VL: B9 VL with T25S, I32T, Y35H, I36T, F37Y, Y57S, Q61P, S98Q, Y101F
# notes: Tested as IgG (Fab genes converted into IgG format, human IgG1 constant region, kappa light chain); also called dBBDu183/L063; dBBDu_183/L063
# B12: dBBDu_189 / dBBDu_L116 (antibody, human IgG1, V domains shown)
# VH: B9 VH with V48I, T108S, V109L, A112S
# VL: B9 VL with R24S, T25S, I32A, Y35Q, F37Y, Y57A, Q61P, S98Q, Y101F
# notes: Tested as IgG (human IgG1 constant region, kappa light chain); also called dBBDu189/L116
# B13: dBBDu_189 / dBBDu_L112 (antibody, human IgG1, V domains shown)
# VH: B9 VH with V48I, T108S, V109L, A112S
# VL: B9 VL with R24T, T25S, S26D, I32M, Y35H, I36T, F37Y, Q61P, Y101F
# notes: Tested as IgG (human IgG1 constant region, kappa light chain); also called dBBDu189/L112
# B14: dBBDu_183 / dBBDu_L072 (antibody, human IgG1, V domains shown)
# VH: B9 VH with R54K, S55G, Q57A, T60A, Q105S
# VL: B9 VL with R24Q, T25A, I32M, Y35N, I36T, F37Y, Y57S, Q61P, Y101F
# notes: Tested as IgG (human IgG1 constant region, kappa light chain); also called dBBDu183/L072; H183L072
# B15: dBBDu_183 / dBBDu_L067 (antibody, human IgG1, V domains shown)
# VH: B9 VH with R54K, S55G, Q57A, T60A, Q105S
# VL: B10 VL with S24Q, A25S, L30V, N32V, R55K, S57Y, N61P, G94A, Q98S
# notes: Tested as IgG (human IgG1 constant region, kappa light chain); also called dBBDu183/L067
# Target: human CD137 expressed constitutively on the B cell strain HDLM-2 (human, UniProt Q07011 24-255)
# Assay: cell-based or functional assay
# Chain of human CD137 expressed constitutively on the B cell strain HDLM-2 (Q07011 24-255): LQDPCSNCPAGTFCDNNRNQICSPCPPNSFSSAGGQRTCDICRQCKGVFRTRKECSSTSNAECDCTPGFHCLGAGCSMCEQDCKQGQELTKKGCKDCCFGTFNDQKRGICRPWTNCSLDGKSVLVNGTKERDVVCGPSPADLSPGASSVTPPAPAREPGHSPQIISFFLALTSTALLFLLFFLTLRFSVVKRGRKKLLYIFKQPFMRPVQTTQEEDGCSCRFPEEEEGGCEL
Binder,"Agonistic activity compared to B, antibody 6 µg/mL [%]","Agonistic activity compared to B, antibody 30 µg/mL [%]","Agonistic activity compared to Ctrl, antibody 6 µg/mL [%]","Agonistic activity compared to Ctrl, antibody 30 µg/mL [%]","hIL-6 (pg/mL), antibody 6 µg/mL [pg/mL]","hIL-6 (pg/mL), antibody 30 µg/mL [pg/mL]"
B1,-1.27,6.51,-4.41,24.7,968,1130
B2,8.28,19.2,28.7,72.9,1300,1570
B3,-2.21,1.1,-7.68,4.19,935,944
B4,19,24.2,66.1,91.7,1680,1740
B5,6.92,20.4,24,77.3,1260,1610
B6,13.9,24.6,48.3,93.5,1500,1750
B7,3.21,15.8,11.1,59.8,1130,1450
B8,13.2,19.4,45.8,73.6,1480,1570

# Target: T1, cynomolgus monkey CD137 (cynomolgus monkey, UniProt Q07011 24-186 (human entry), limits assumed)
# T1 construct: Soluble analyte in the Biacore assay; also called cyno CD137
# T1 chain: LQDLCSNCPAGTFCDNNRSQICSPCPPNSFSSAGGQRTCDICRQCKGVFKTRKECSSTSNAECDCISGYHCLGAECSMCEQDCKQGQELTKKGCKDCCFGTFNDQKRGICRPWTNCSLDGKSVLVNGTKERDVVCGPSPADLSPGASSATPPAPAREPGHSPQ
# Assay: SPR Biacore T200, IgG captured on protein A, antigen as analyte, 25 C;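 also: antigens flowed over a CM3 chip for 120 s association, KD derived from ka and kd, running buffer (ACES, NaCl, Tween20, pH 7.4) served as blank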
# Method: (§1) Sensor chip CM3 (GE Healthcare) was immobilized with an appropriate amount of sure protein A (GE Healthcare) by amine coupling. The selected antibodies were captured by the chip to allow interaction to human CD3ed, human CD137 and cyno CD137 as an antigen. The running buffer used was 20 mmol/l ACES, 150 mmol/l NaCl, 0.05% (w/v) Tween20, pH 7.4. All measurements were carried out at 25 degrees C. The antigens were diluted using the running buffer.
# (§2) Diluted antigen solutions and the running buffer which is the blank were loaded at a flow rate of 30 micro L/min for 120 seconds to allow each of the antigens to interact with the antibody captured on the sensor chip. […] Next, to regenerate the sensor chip, 10 mmol/L glycine-HCl, pH 1.5 was loaded at a flow rate of 30 micro L/min for 30 seconds and 50 mmol/L NaOH was loaded at a flow rate 30 micro L/min for 30 seconds.
# (§3) Kinetic parameters such as the association rate constant ka (1/Ms) and the dissociation rate constant kd (1/s) were calculated based on the sensorgrams obtained by the measurements. The dissociation constant KD(M) was calculated from these constants. Each parameter was calculated using the Biacore T200 Evaluation Software (GE Healthcare).
Binder,Kd [µM],koff [s⁻¹],kon [M⁻¹ s⁻¹]
B9,205,0.00223,–
B10,4.17,0.0101,2430
B11,3.12,0.00457,1470
B12,11.1,0.00823,744
B13,5.76,0.0286,4980
B14,4.87,0.00593,1220
B15,6.2,0.00813,1310

# Target: T2, human CD3ed (human, UniProt P07766 23-126; P04234 22-105, limits assumed)
# T2 construct: The construct injected as 'human CD3ed' in the Biacore assay is not defined; also called human CD3 epsilon/delta heterodimer
# Assay: as above
# Method: as §1, §2, §3
# T2 sequence (P07766 23-126 limits assumed, chain 1 of 2): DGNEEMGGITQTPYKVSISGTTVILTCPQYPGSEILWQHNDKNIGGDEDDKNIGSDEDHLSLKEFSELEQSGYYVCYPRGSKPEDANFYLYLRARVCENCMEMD
# T2 sequence (P04234 22-105 limits assumed, chain 2 of 2): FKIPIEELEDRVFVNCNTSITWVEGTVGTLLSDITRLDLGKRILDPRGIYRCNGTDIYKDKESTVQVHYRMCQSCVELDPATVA
Binder,Kd [µM],koff [s⁻¹],kon [M⁻¹ s⁻¹]
B9,9.11,0.102,11200
B10,0.413,0.0216,52400
B11,0.276,0.0157,56900
B12,0.209,0.00434,20800
B13,0.331,0.01,30300
B14,0.217,0.00785,36100
B15,0.217,0.0193,88900
